Source: PMC8376870, “Auto-inhibitory intramolecular S5/S6 interaction in the TRPV6 channel regulates breast cancer cell migration and invasion” (Communications Biology, 2021)

Target: T1, GST-G511-V540 (TRPV6 S5 fragment) (human, UniProt Q9H1D0 511-540)
T1 construct: also called S5 (G511-V540); source: E. coli, purified (GST beads)
Experiment: pull-down; purified His- or GST-tagged peptides from E. coli incubated together overnight at 4 °C, 50% beads (GST or Ni-NTA) added, washed with 1% NP-40, western blot
Conditions: both partners purified

T1 sequence (Q9H1D0 511-540): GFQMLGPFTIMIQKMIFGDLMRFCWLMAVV

B1: His-MBP-A603-L632 (TRPV6 S6 fragment) (domain or fragment)
chain: not shown
notes: also called S6 (A603-L632); source: E. coli, purified (Ni-NTA beads)
**Q.** Does B1 bind?
**A.** Result: binds
